# Values quoted from earlier work in patent publication US6699832B2 (Pfizer Inc., priority 2000, dated 2004).
# Where no end group is shown, it is not given here.
# Assays:
# [1] = system: neurotensin-1 and neurotensin-2 receptors; conditions: non-selective antagonist
# [2] = molecular target: neurotensin-1 receptor (Homo sapiens, UniProt P30989); conditions: read-out: binding affinity at the neurotensin-1 receptor
# [3] = molecular target: neurotensin-2 receptor (Homo sapiens, UniProt O95665); conditions: read-out: binding affinity at the neurotensin-2 receptor
# Chain of neurotensin-2 receptor (O95665 whole entry): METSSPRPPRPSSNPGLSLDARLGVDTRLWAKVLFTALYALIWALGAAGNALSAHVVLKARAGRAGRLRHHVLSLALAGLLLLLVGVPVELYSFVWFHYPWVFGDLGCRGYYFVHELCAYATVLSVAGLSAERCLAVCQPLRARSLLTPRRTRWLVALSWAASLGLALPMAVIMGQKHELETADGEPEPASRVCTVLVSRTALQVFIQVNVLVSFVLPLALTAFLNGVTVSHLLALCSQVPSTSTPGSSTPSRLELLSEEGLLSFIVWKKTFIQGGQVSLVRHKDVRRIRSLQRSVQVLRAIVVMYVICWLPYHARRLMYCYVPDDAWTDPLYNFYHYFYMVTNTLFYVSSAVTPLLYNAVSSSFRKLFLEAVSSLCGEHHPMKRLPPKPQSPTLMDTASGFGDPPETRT
# Chain of neurotensin-1 receptor (P30989 whole entry): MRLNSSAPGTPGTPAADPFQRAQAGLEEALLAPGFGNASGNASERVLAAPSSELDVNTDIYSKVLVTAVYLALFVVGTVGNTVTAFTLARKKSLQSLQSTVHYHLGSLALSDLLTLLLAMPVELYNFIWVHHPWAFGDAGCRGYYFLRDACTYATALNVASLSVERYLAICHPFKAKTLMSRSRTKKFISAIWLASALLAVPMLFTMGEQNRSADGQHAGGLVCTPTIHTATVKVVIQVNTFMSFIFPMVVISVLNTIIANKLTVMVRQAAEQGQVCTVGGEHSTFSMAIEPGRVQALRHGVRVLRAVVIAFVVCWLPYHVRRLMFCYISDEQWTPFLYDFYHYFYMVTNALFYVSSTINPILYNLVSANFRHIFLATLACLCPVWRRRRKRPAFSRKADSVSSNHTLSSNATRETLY
Compound,affinity at neurotensin-1 versus neurotensin-2 receptors (selectivity) [1],Kd [2],Kd [3]
COc1cccc(OC)c1-c1cc(C(=O)NC2(C(=O)O)C3CC4CC(C3)CC2C4)nn1-c1ccc(C(=O)N(C)CCCN(C)C)cc1C(C)C (stereo not drawn) [SR142948A],equal affinity,,
"Trp11 NT(1-13): NT(1-13) in which amino acid 11 is tryptophan; selective neurotensin-1 receptor agonist (QLYENKPRRPWIL; ends and bridges not checked; UniProt P30990 151-163, looked up, variant Y11W)",,~1 nM,~27 nM
